Experimental data as given in EP4574843A1 (Numab Therapeutics AG, dated 2025).

molecular target: T1, LILRB2 on human monocyte-derived macrophages (HMDM) (human, UniProt Q8N423 22-597); experiment: cell-based or functional assay
T1 sequence (Q8N423 22-597): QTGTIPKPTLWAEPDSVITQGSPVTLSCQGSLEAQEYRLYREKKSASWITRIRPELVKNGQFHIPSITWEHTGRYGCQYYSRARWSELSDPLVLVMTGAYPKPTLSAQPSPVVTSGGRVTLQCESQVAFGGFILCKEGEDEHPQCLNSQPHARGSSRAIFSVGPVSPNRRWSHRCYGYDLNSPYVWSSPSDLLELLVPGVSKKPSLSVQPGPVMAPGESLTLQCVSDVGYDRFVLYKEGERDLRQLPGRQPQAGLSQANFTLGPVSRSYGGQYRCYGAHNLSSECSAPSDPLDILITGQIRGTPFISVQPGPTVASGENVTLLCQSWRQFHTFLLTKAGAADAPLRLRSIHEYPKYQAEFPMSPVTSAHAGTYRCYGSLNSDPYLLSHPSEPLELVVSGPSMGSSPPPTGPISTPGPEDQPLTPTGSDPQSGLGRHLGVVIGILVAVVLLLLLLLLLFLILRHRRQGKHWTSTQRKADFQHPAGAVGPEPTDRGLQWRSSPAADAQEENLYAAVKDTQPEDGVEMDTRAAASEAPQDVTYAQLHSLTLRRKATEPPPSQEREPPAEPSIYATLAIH

Row | Binder | CD86 EC50 [nM], re-polarization of M2 macrophages [nM] | CD163 EC50 [nM], re-polarization of M2 macrophages [nM] | CD206 EC50 [nM], re-polarization of M2 macrophages [nM] | IL-1β EC50 [nM], LPS-driven cytokine secretion by HMDM [nM] | IL-6 EC50 [nM], LPS-driven cytokine secretion by HMDM [nM] | TNF-α EC50 [nM], LPS-driven cytokine secretion by HMDM [nM]
1 | PRO3744, scFv (VL-linker-VH) 68-18-E11-sc07_(VL_A67G_S68G_T141C; VH_G51C_T101S_T146K) (scFv) scFv: DVQMTQSPSSLSASVGDRVTITCQASQSIGSNLAWYQQKPGKPPKLLIYKGGTLESGVPSRFSGSGSGTDFTLTISSLQPEDFATYYCQSTAGSSRSGNYGYVFGCGTKVTVLGGGGGSGGGGSGGGGSGGGGSQQLVESGGGLVQPGGSLRLSCAASGFSFTNNYYMCWVRQAPGKCLEWIACMLVGAWGNTYYASWANGRFTISKDNSKNTVYLQMNSLRAEDSAVYFCARARDYTWTLGGDPETSGFNLWGQGTLVKVSS | 0.117 | 0.107 | 0.136 | 0.779 | 0.803 | 1.1
2 | PRO3696, scFv (VL-linker-VH) 69-01-E02-sc06_(VL_A67G_S68G; VH_T101S_L146K) (scFv) scFv: DVQMTQSPSSLSASVGDRVTITCQASQSIGLNLAWYQQKPGKPPKLLIYAGGYLASGVSSRFSGSGSGTDFTLTISSLQPEDFATYYCQSTYDGSSFVFAFGTGTKVTVLGGGGGSGGGGSGGGGSGGGGSQEQLVESGGGLVQPGGSLRLSCAASGFSFSSSSYMCWVRQAPGKGLEWIACMVTGSSDDTDYASWAKGRFTISKDNSKNTVYLQMNSLRAEDSAVYFCARAGSAPLWGQGTLVKVSS | 0.243 | 0.371 | 0.587 | 0.446 | 0.804 | 0.891
3 | PRO3697, scFv (VL-linker-VH) 69-06-G04-sc05_(VL_A67G_S68G; VH_T101S_L146K) (scFv) scFv: AFQLTQSPSSLSASVGDRVTITCQASQSIGTYLAWYQQKPGKPPKLLIYRGGTLASGVPSRFSGSGSGTDFTLTISSLQPEDFATYYCQSYDSSNTFGTGTKVTVLGGGGGSGGGGSGGGGSGGGGSQEQLVESGGGLVQPGRSLRLSCAASGFDLSADYMCWVRQAPGKGLEWIACIYIDDDNTYYATWAKGRFTISKDNSKNTVYLQMNSLRAEDSAVYFCARGYGVYTGAITYFTLWGQGTLVKVSS | 0.214 | 0.173 | 0.512 | 0.279 | 0.45 | 2.2

molecular target: T1, LILRB2 on human monocyte-derived …; experiment: cell-based or functional assay; remark: another data set of the same source

Row | Binder | IL-1β EC50 [nM], LPS-driven cytokine secretion by HMDM [nM] | IL-6 EC50 [nM], LPS-driven cytokine secretion by HMDM [nM] | TNF-α EC50 [nM], LPS-driven cytokine secretion by HMDM [nM]
4 | PRO4672 (37-20-B03-based PDL1-BD), anti-CD47 x PDL1 x LILRB2, (scFv)2-Fc-(scFv)2 (trispecific antibody) chain 1: DVQMTQSPSSLSASVGDRVTITCQASQSISSWVSWYQQKPGKPPKLLIYRGGYLESGVPSRFSASGSGTDFTLTISSLQPEDFATYYCQSTDSSTYGGAFGCGTKVTVLGGGGGSGGGGSGGGGSGGGGSQQVVESGGGLVQPGGSLRLSCAVSGIDLNSYAMTWVRQAPGKCLEWIGYIGSASSTYYASWASGRFTISKDNSKNTVYLQMNSLRAEDSAVYFCARGSTYINIWGQGTLVKVSSEPKSSDKTHTCPPCPAPELLGGPSVFLFPPKPKDTLMISRTPEVTCVVVDVSHEDPEVKFNWYVDGVEVHNAKTKPREEQYNSTYRVVSVLTVLHQDWLNGKEYKCKVSNKALPAPIEKTISKAKGQPREPQVYTLPPCREEMTKNQVSLSCAVKGFYPSDIAVEWESNGQPENNYKTTPPVLDSDGSFFLVSKLTVDKSRWQQGNVFSCSVMHEALHNHYTQKSLSLSPGKGGGGSGGGGSDVQMTQSPSSLSASVGDRVTITCQASQSIGSNLAWYQQKPGKPPKLLIYKGGTLESGVPSRFSGSGSGTDFTLTISSLQPEDFATYYCQSTAGSSRSGNYGYVFGCGTKVTVLGGGGGSGGGGSGGGGSGGGGSQQLVESGGGLVQPGGSLRLSCAASGFSFTNNYYMCWVRQAPGKCLEWIACMLVGAWGNTYYASWANGRFTISKDNSKNTVYLQMNSLRAEDSAVYFCARARDYTWTLGGDPETSGFNLWGQGTLVKVSS chain 2: not shown | 0.096 | 0.078 | 0.123
5 | PRO5055 (PRO4687 with 33-03-G02-based PDL1-BD), anti-CD47 x PDL1 x LILRB2 (trispecific antibody, human IgG1, kappa) DVQMTQSPSSLSASVGDRVTITCQASQSISSWVSWYQQKPGKPPKLLIYRGGYLESGVPSRFSASGSGTDFTLTISSLQPEDFATYYCQSTDSSTYGGAFGCGTKVTVLGGGGGSGGGGSGGGGSGGGGSQQVVESGGGLVQPGGSLRLSCAVSGIDLNSYAMTWVRQAPGKCLEWIGYIGSASSTYYASWASGRFTISKDNSKNTVYLQMNSLRAEDSAVYFCARGSTYINIWGQGTLVKVSSEPKSSDKTHTCPPCPAPELLGGPSVFLFPPKPKDTLMISRTPEVTCVVVDVSHEDPEVKFNWYVDGVEVHNAKTKPREEQYNSTYRVVSVLTVLHQDWLNGKEYKCKVSNKALPAPIEKTISKAKGQPREPQVYTLPPCREEMTKNQVSLSCAVKGFYPSDIAVEWESNGQPENNYKTTPPVLDSDGSFFLVSKLTVDKSRWQQGNVFSCSVMHEALHNHYTQKSLSLSPGKGGGGSGGGGSDVQMTQSPSSLSASVGDRVTITCQASQSIGSNLAWYQQKPGKPPKLLIYKGGTLESGVPSRFSGSGSGTDFTLTISSLQPEDFATYYCQSTAGSSRSGNYGYVFGCGTKVTVLGGGGGSGGGGSGGGGSGGGGSQQLVESGGGLVQPGGSLRLSCAASGFSFTNNYYMCWVRQAPGKCLEWIACMLVGAWGNTYYASWANGRFTISKDNSKNTVYLQMNSLRAEDSAVYFCARARDYTWTLGGDPETSGFNLWGQGTLVKVSS heavy: not shown light: DIQMTQSPSSLSASVGDRVTITCQASQSINDYLAWYQQKPGKAPKLLIYKGGTLASGVPSRFSGSGSGTDFTLTISSLQPEDFATYYCQQGYIITDIDNVFGQGTKVEIKRTVAAPSVFIFPPSDEQLKSGTASVVCLLNNFYPREAKVQWKVDNALQSGNSQESVTEQDSKDSTYSLSSTLTLSKADYEKHKVYACEVTHQGLSSPVTKSFNRGEC | 0.0705 | 0.063 | 0.141
6 | PRO5052 (PRO4672 with 33-03-G02-based PDL1-BD), anti-CD47 x PDL1 x LILRB2, (scFv)2-Fc-(scFv)2 (trispecific antibody) chain 1: DVQMTQSPSSLSASVGDRVTITCQASQSISSWVSWYQQKPGKPPKLLIYRGGYLESGVPSRFSASGSGTDFTLTISSLQPEDFATYYCQSTDSSTYGGAFGCGTKVTVLGGGGGSGGGGSGGGGSGGGGSQQVVESGGGLVQPGGSLRLSCAVSGIDLNSYAMTWVRQAPGKCLEWIGYIGSASSTYYASWASGRFTISKDNSKNTVYLQMNSLRAEDSAVYFCARGSTYINIWGQGTLVKVSSEPKSSDKTHTCPPCPAPELLGGPSVFLFPPKPKDTLMISRTPEVTCVVVDVSHEDPEVKFNWYVDGVEVHNAKTKPREEQYNSTYRVVSVLTVLHQDWLNGKEYKCKVSNKALPAPIEKTISKAKGQPREPQVYTLPPCREEMTKNQVSLSCAVKGFYPSDIAVEWESNGQPENNYKTTPPVLDSDGSFFLVSKLTVDKSRWQQGNVFSCSVMHEALHNHYTQKSLSLSPGKGGGGSGGGGSDVQMTQSPSSLSASVGDRVTITCQASQSIGSNLAWYQQKPGKPPKLLIYKGGTLESGVPSRFSGSGSGTDFTLTISSLQPEDFATYYCQSTAGSSRSGNYGYVFGCGTKVTVLGGGGGSGGGGSGGGGSGGGGSQQLVESGGGLVQPGGSLRLSCAASGFSFTNNYYMCWVRQAPGKCLEWIACMLVGAWGNTYYASWANGRFTISKDNSKNTVYLQMNSLRAEDSAVYFCARARDYTWTLGGDPETSGFNLWGQGTLVKVSS chain 2: not shown | 0.082 | 0.077 | 0.117
7 | PRO4687 (37-20-B03-based PDL1-BD), anti-CD47 x PDL1 x LILRB2 (trispecific antibody, human IgG1, kappa) DVQMTQSPSSLSASVGDRVTITCQASQSISSWVSWYQQKPGKPPKLLIYRGGYLESGVPSRFSASGSGTDFTLTISSLQPEDFATYYCQSTDSSTYGGAFGCGTKVTVLGGGGGSGGGGSGGGGSGGGGSQQVVESGGGLVQPGGSLRLSCAVSGIDLNSYAMTWVRQAPGKCLEWIGYIGSASSTYYASWASGRFTISKDNSKNTVYLQMNSLRAEDSAVYFCARGSTYINIWGQGTLVKVSSEPKSSDKTHTCPPCPAPELLGGPSVFLFPPKPKDTLMISRTPEVTCVVVDVSHEDPEVKFNWYVDGVEVHNAKTKPREEQYNSTYRVVSVLTVLHQDWLNGKEYKCKVSNKALPAPIEKTISKAKGQPREPQVYTLPPCREEMTKNQVSLSCAVKGFYPSDIAVEWESNGQPENNYKTTPPVLDSDGSFFLVSKLTVDKSRWQQGNVFSCSVMHEALHNHYTQKSLSLSPGKGGGGSGGGGSDVQMTQSPSSLSASVGDRVTITCQASQSIGSNLAWYQQKPGKPPKLLIYKGGTLESGVPSRFSGSGSGTDFTLTISSLQPEDFATYYCQSTAGSSRSGNYGYVFGCGTKVTVLGGGGGSGGGGSGGGGSGGGGSQQLVESGGGLVQPGGSLRLSCAASGFSFTNNYYMCWVRQAPGKCLEWIACMLVGAWGNTYYASWANGRFTISKDNSKNTVYLQMNSLRAEDSAVYFCARARDYTWTLGGDPETSGFNLWGQGTLVKVSS heavy: not shown light: DIQMTQSPSSLSASVGDRVTITCQASQSIGTYLAWYQQKPGKPPKLLIYRGGILASGVPSRFSGSGSGTDFTLTISSLQPEDFATYYCQSNFYSDSTTIGPNAFGQGTKVEIKRTVAAPSVFIFPPSDEQLKSGTASVVCLLNNFYPREAKVQWKVDNALQSGNSQESVTEQDSKDSTYSLSSTLTLSKADYEKHKVYACEVTHQGLSSPVTKSFNRGEC | 0.205 | 0.097 | 0.175
8 | PRO4710 (IgG4 of scFv PRO3744, 68-18-E11-sc07) (antibody, V domains shown) VH: QQLVESGGGLVQPGGSLRLSCAASGFSFTNNYYMCWVRQAPGKGLEWIACMLVGAWGNTYYASWANGRFTISKDNSKNTVYLQMNSLRAEDTAVYFCARARDYTWTLGGDPETSGFNLWGQGTLVTVSS VL: DVQMTQSPSSLSASVGDRVTITCQASQSIGSNLAWYQQKPGKPPKLLIYKGGTLESGVPSRFSGSGSGTDFTLTISSLQPEDFATYYCQSTAGSSRSGNYGYVFGQGTKVEIKR | 0.248 | 0.153 | 0.169
